Measurements reported in patent publication US20240287489A1, “CHITINOLYTIC ENZYME-BASED PLANT PROTECTION AGENTS” (GLOBACHEM NV, priority 2021, published 2024).

What was measured:
[1] = Reducing end assay, specific chitinase activity of expression and purification fractions; type: biochemical; conditions: chitin powder, 16 h at 30° C.
Experimental: Integrity and correctness of the constructs was confirmed by colony PCR and Sanger-sequencing. All constructs were transformed into E. coli BL21 and expressed recombinantly. Expression levels of the target enzymes were determined densitometrically after immunoblot detection for cytosolic and secreted expression. Enzymatic activity was determined for all samples using a reducing end assay. […] Furthermore, it was confirmed that these enzymes are efficiently released into the culture supernatant, rendering cell lysis unnecessary for future production cycles.
A two-step purification of the selected recombinant enzymes with PelB signal peptide form the culture supernatant was carried out with an initial ammonium sulfate precipitation step and a sequential IMAC purification of the solubilized protein precipitate. Elution fractions were pooled and an SDS-PAGE and immunoblot was prepared loading the same volume for each sample (FIG. 4). Expression levels of the five chitinases varied largely, and C1 was detected in much greater abundance relative to the others. […] The observed molecular weight of all enzymes in SDS-PAGE gel and immunoblot was not in accordance with the expected theoretical molecular weight taking into account that a 6×His tag was added C-terminally to the enzymes and in general, bands for all enzymes were detected at a higher molecular weight. For all samples, unspecific bands could detected at ˜25 kDa and ˜50 kDa after IMAC purification, most likely representing host cell protein-contaminations. The amount of protein in the culture media, ammonium sulfate concentrates and the final dialyzed elution fractions was determined using the BCA assay and the same fractions were incubated with chitin powder for 16 h at 30° C. followed by the quantification of reducing sugars to measure specific chitinase activity (Table 4.2). Thereby it was confirmed that all target enzymes were successfully enriched during purification according to the specific activity.
For the determination of enzymatic activity of recombinant chitinases, a reducing end assay was carried out [Svein et al., Carbohydr Polym, 2004. 56(1): p. 35-39.]. Fractions containing chitinases were incubated with 5% (w/v) chitin powder extracted from shrimp shells (˜400.000 g/mol; Carl Roth) in MAT buffer for 2 h in an overhead shaker at ambient temperature (standard conditions). Samples were centrifuged at 13000×g for 2 min and 40 μl of the supernatant was mixed with 40 μl 0.5 M NaOH and 40 μL of a reagent containing 1.5 mg/ml 3-Methyl-2-benzothiazolinonhydrazon and 0.75 mg/ml Dithiothreitol. Samples were incubated at 80° C. for 15 min and then thoroughly mixed with 80 μl of 0.5% (w/v) FeNH4(SO4)2)×12H2O, 0.5% (w/v) sulfamic acid and 0.25 M HCl. After cooling down to room temperature, 100 μl of the samples were measured at 620 nm. A calibration curve of N-acetyl-glucosamine was constructed freshly for each measuring cycle. One unit [U] was defined as the amount of enzyme required to release 1 μmol of reducing sugars per hour.

Septoria tritici = assay: Minimum inhibitory concentration (MIC) test on fungal pathogens; type: cell-based; set-up: key: xx = no growth/strong inhibition; x = small inhibition; conditions: start concentration 100 μg/ml
[2] = Substrate specificity, reducing end assay; type: biochemical; conditions: in % activity of chitin powder; 16 h at optimum conditions, 50 mg/ml substrate
Experimental: (§1) Different chitinous substrates were tested to assess the substrate affinity of the novel chitinases relative to untreated chitin powder. […] As expected, the conversion of colloidal chitin is more efficient compared to chitin powder as it provides an overall smaller particle size and thereby larger surface area. Chitosan powder (degree of acetylation: 15%) was also degraded efficiently and high chitosanase activity was observed especially for C1, C3, C4 and C5. Merely basal activity was detected when cellulose was utilized as a substrate for all enzymes.
The preparation of colloidal chitin was similar to the method described by Murthy and Bleakley with some minor differences [Murthy et al., Microbiol., 2012. 10(2): p. 1-5.]. Chitin powder (Carl Roth) was dissolved in concentrated hydrochloric acid (HCl) (5 g in 100 mL) and stirred at 4° C. for 24 h, after which the mixture was centrifuged at 4000×g for 15 min at 4° C. The precipitate was washed to neutral pH with distilled water and stored at 4° C.
(§2) Enzyme samples were incubated at different temperature (10-60° C., 10° C. increment) and pH (4-11, increment 1) using different buffer systems (Acetate, Tris-HCl, MES, total molar concentration 100 mM), as well as NaCl content (0, 1. 2.5, 5, 10 and 20% w/v) to determine optimum reaction conditions. All experiments were carried out at 1.0 ml scale using 2 μM of the respective enzymes and a 5% (wv) suspension of chitin powder extracted from shrimp shells (˜400.000 g/mol; Carl, Roth) in 100 mM MAT buffer. For the determination of the substrate specificity, chitin powder (5% w/v), glycol chitin (10% v/v), colloidal chitin (5% w/v), chitosan [DA 15-25%, medium molecular weight, Sigma-Aldrich] (5% w/v) and microcrystalline cellulose powder (Sigma Aldrich) (5% w/v) were investigated, respectively. The effect of several potential co-factors on activity was elucidated at a concentration of 1 mM. Additionally, the effect of detergents [SDS 0.5% (w/v), Tween-20 and Triton X-100 both at 0.5% (v/v)] and chemicals (Imidazole 100 mM, EDTA 1 mM) on enzymatic activity was assessed. Samples were incubated in a thermomixer for 16 h at 900 rpm. After incubation, samples were analyzed using the enzyme assay. Thermostability was assessed after incubation of recombinant chitinases at 60° C. for different durations followed by the quantification of residual enzyme activity under standard assay conditions.

Gibberella zeae = type: cell-based; set-up: key: xx = no growth/strong inhibition; x = small inhibition; conditions: start concentration 100 μg/ml
[3] = Substrate specificity, reducing end assay; type: biochemical; conditions: in % activity of chitin powder; 16 h at optimum conditions, 50 mg/ml substrate; remark: listed apart in the source
Experimental: as §1, §2

[4] = Dialysed elution fraction after IMAC

B1: Chitinase 1: chitinolytic enzyme from P. orarium, SEQ ID NO: 1, recombinant with PelB signal peptide and 6×His tag; run 19 = 2 μM alone (protein, listed as Photobacterium orarium)
chain: MAAPGTPQIAWMETDYAIVEVDQAASAYKSLITVKPAAEVPVAWQRYSGETADLWKVKLNGNVVFEQSIAPASSGAGSTTLSVAQGGQYAMTVELCSGTGAAQACTSSAATNIVVADTDGSHLDPLPMNVDANNGNYTTPANTVVGAYFVEWGVYGRKFSVDNIPAQNLTHILYGFIPICGPNESLGEIENGNSLAALNRACQGTPDYEVVIHDPWAAVQMPQPQSGHTHSTPYKGTYGQMMALKQRYPDLKIVPSVGGWTLSDPFYSFTDKAKRDIFVASVKKFLKTWKFFDGVDIDWEFPGGKGANANLGDPVNDGPAYVALMRELRVMLDELEAETGRQYELTSAIGVGYDKIDVVNYADAVQYMDYIFAMTYDFFGGWNNVPGHQTALFCGSHMSADVCNGTGVDENGVPRQGPAYTAAHGIDRLLAQGVPANKLVLGTAMYARGWTGVTEASMTDPTNPMTGTGNGMVPGSWEPGVIDYKDVVTDYINNAAVTKGYDAQAEAPWAYNPSNGNLITYDDRRSVLAKGQYVRNLGLAGLFAWEIDADNGDILNAMQDSLAGGGGNYAPVAKAGADQVVNGAASVTLDGSASSDRDGQIVSYQWTQTSGPALTLTGSDTATATVAVPEVTADTQYAFTLTVTDNAGDTATDSVTVTAKAPGSNTAPVVAVSGPATASAGDTVVLDASQSSDADGDTLTFTWTVPAGVNATVNGATVSFVADSYTVDTPLNFTVAVSDGTDSVTESVTVTVLKDGGSTGCTNAWATGGVYNSGDIVTHSGKSWKAKWWTTGEEPGTTGEWGVWEDLGAANCQIE
modifications: PelB signal peptide; 6xHis tag; Chitinase 1
notes: run 19 = 2 μM alone
Specific activity ([1]; Culture supernatant fraction): 0.10 U/mg | Specific activity [1, 4]: 3.52 U/mg | growth inhibition of Septoria tritici in the MIC test (Septoria tritici): xx | Relative activity, Colloidal chitin [2]: 159.9 ± 4.8% | growth inhibition of Gibberella zeae in the MIC test (Gibberella zeae): x | Relative activity, Cellulose [3]: 14.3 ± 5.7% | Relative activity, Chitin [3]: 100% | Relative activity, Chitosan [3]: 117.1 ± 9.1%

B2: Chitinase 2: chitinolytic enzyme from P. orarium, SEQ ID NO: 2, recombinant with PelB signal peptide and 6×His tag (protein, listed as Photobacterium orarium)
chain: MATANYNPDGVYSAGEQVIYQGATYQALRSTENEAPDTYLGDAWQQVNAQNVTSSTTPTYPAYQSSAVYVGGDHVSYNSQIYKAKWWTQGEAPDATPGTGVWEWVSADNNPDPGPGPDPDPTPEPTPANGIIGQNPDGSYIMSKTYLDAREAELTSSPEFAAVLASISTRDNAVVEAVVPGLSTNPDNVKRVEALISEQKWDALFPERNVVYTYSNFLKAVAKFKGFCATYTDERAAQSDAICAKSLAVMFAHFTQETGAHNPHSPYEEWRQGLFFVREAGCSEEASSCGYNSECAASNWQTEQWPCGTNPDGSYVKYFGRGAKQLSYHYNYGPFSDFIFNDVNVLLQDPDRVADSWLNLASAVFFFVYPQPPKPSMLHVIDGTWQPTAADIAEKRVPGFGVTTMIINGGIECTLDTEKPQSVNRIKYYRGHAAALGVAIPADEQLGCAGMKAFKKTGDSTFGLYWENDWSYYPDNPGGSSFACRIESGYQTAHTTLKKGDYAKCIQKYYGVTIE
modifications: PelB signal peptide; 6xHis tag; Chitinase 2
Specific activity ([1]; Culture supernatant fraction): 0.04 U/mg | Specific activity [1, 4]: 5.36 U/mg | growth inhibition of Septoria tritici in the MIC test (Septoria tritici): xx | Relative activity, Colloidal chitin [2]: 191.4 ± 4.7% | growth inhibition of Gibberella zeae in the MIC test (Gibberella zeae): xx | Relative activity, Cellulose [3]: 10.0 ± 1.1% | Relative activity, Chitin [3]: 100% | Relative activity, Chitosan [3]: 71.4 ± 6.7%

B3: Chitinase 5: chitinolytic enzyme from P. orarium, SEQ ID NO: 5, recombinant with PelB signal peptide and 6×His tag (protein, listed as Photobacterium orarium)
chain: MAMGWSQININGVQKWEEAYSLNVDAANEIITIGAADTAGALYASQSLLQLVDGNKVPEVQITDAPRFAYRGFSVDAVRNFRTKDAIIQLLDQMAAFKLNKLHLRLADDEGWRIEIAGLPELTDVGATRCHDPEEKACILPFLGAGPDGSPESNGYYTATDYQDILSHAAALNIEVVPEIDIPGHAHAAIKAMEARYDHYAAQGNMAEANKYLLTDFNDTTQYLSVQMFTDNAINVCMESSYNFVDAVVSGLVSLHQGVQPLKTFHFGGDEIAGAWINSPACQDFIANNTDGVHSVSDLSRYFVERISVITANYGLDMAGWEDGLMHDGQVYPRSQMANNQLWGNAWQNIWEWGVADRAYNLANNDYKVVYNHATHLYFDHPYEPDPNERGYYWAPRFTDTRKTFGFMPDDVFANADFTRAGAPITKAEVVASAGVKKLLKPENVLGLQGSLWAEAVRTEDQFEGMIFPRVLGLAERAWHTATWEANDNAGIALDETGRNADYNHFANLLGQKVLPKLEQAGIAFNLPVPGGVIENGVLQANSTFPGLTIEYSTDQGTSWQSYDHLNPPAVAAGVQLRTVSGQRTSRVTTVNIE
modifications: PelB signal peptide; 6xHis tag; Chitinase 5
Specific activity ([1]; Culture supernatant fraction): 0.03 U/mg | Specific activity [1, 4]: 6.67 U/mg | growth inhibition of Septoria tritici in the MIC test (Septoria tritici): xx | Relative activity, Colloidal chitin [2]: 164.1 ± 2.8% | growth inhibition of Gibberella zeae in the MIC test (Gibberella zeae): xx | Relative activity, Cellulose [3]: 11.2 ± 1.1% | Relative activity, Chitin [3]: 100% | Relative activity, Chitosan [3]: 117.8 ± 1.7%
